Reference: article PMC6504924 (2019)
Blank lines part the entries; values can stand above or below the binder they belong to.

Experiments:
[1] = target: T1, NanoLuc:PDGFRβ fusion on cells (UniProt P09619 33-1106)
[2] = target: T1, NanoLuc:PDGFRβ fusion on cells; remark: listed apart in the source
[3] = target: T1, NanoLuc:PDGFRβ fusion on cells; experiment: competition with CBT-labeled PDGF-BB
[4] = target: T1, NanoLuc:PDGFRβ fusion on cells; experiment: competition with CBT-labeled PDGF-BB; remark: listed apart in the source
[5] = target: T2, NanoLuc:EGFR fusion on cells (UniProt P00533 25-1210)
[6] = target: T2, NanoLuc:EGFR fusion on cells; remark: listed apart in the source
[7] = target: T2, NanoLuc:EGFR fusion on cells; experiment: competition with CBT-labeled EGF
[8] = target: T2, NanoLuc:EGFR fusion on cells; experiment: competition with CBT-labeled EGF; remark: listed apart in the source
[9] = target: T3, NanoLuc:VEGFR2 fusion on cells (UniProt P35968 20-1356); experiment: competition with CBT-labeled VEGF165a
[10] = target: T3, NanoLuc:VEGFR2 fusion on cells; experiment: competition with CBT-labeled VEGF165a; remark: listed apart in the source
[11] = target: T3, NanoLuc:VEGFR2 fusion on cells

T3 sequence (P35968 20-1356): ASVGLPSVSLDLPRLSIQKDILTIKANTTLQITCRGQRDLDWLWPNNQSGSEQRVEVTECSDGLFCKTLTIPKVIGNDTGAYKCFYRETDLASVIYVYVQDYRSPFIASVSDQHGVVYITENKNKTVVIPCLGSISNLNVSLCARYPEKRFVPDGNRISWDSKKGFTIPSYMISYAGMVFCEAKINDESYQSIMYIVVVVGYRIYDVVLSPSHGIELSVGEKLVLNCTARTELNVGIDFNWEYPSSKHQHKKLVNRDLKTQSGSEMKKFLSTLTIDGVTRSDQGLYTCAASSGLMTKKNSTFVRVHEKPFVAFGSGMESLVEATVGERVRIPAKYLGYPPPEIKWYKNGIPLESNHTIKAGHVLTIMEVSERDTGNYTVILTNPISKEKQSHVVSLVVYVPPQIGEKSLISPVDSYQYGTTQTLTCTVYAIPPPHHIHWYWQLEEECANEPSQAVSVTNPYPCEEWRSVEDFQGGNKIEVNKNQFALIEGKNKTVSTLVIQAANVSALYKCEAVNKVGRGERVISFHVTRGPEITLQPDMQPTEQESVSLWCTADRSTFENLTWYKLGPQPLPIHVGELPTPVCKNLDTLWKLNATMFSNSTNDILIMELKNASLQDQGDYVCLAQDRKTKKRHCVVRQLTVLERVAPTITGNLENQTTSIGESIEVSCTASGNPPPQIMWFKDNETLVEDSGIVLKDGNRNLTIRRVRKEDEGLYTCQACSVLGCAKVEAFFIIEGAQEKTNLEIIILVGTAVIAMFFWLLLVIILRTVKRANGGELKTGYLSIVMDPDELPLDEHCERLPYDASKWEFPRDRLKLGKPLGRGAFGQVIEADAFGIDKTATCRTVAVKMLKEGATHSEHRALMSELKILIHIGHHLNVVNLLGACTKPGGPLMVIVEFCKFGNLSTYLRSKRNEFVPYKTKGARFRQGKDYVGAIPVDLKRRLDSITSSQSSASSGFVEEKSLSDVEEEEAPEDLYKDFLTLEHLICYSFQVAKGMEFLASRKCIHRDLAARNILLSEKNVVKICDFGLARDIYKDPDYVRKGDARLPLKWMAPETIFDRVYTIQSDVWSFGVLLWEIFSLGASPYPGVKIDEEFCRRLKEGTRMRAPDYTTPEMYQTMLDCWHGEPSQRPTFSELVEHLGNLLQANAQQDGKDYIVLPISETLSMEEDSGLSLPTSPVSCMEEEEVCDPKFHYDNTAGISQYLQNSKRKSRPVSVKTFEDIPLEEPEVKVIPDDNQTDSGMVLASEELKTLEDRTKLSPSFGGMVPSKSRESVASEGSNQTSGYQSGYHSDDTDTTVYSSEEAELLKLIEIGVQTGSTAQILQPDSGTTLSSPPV
T1 sequence (P09619 33-1106): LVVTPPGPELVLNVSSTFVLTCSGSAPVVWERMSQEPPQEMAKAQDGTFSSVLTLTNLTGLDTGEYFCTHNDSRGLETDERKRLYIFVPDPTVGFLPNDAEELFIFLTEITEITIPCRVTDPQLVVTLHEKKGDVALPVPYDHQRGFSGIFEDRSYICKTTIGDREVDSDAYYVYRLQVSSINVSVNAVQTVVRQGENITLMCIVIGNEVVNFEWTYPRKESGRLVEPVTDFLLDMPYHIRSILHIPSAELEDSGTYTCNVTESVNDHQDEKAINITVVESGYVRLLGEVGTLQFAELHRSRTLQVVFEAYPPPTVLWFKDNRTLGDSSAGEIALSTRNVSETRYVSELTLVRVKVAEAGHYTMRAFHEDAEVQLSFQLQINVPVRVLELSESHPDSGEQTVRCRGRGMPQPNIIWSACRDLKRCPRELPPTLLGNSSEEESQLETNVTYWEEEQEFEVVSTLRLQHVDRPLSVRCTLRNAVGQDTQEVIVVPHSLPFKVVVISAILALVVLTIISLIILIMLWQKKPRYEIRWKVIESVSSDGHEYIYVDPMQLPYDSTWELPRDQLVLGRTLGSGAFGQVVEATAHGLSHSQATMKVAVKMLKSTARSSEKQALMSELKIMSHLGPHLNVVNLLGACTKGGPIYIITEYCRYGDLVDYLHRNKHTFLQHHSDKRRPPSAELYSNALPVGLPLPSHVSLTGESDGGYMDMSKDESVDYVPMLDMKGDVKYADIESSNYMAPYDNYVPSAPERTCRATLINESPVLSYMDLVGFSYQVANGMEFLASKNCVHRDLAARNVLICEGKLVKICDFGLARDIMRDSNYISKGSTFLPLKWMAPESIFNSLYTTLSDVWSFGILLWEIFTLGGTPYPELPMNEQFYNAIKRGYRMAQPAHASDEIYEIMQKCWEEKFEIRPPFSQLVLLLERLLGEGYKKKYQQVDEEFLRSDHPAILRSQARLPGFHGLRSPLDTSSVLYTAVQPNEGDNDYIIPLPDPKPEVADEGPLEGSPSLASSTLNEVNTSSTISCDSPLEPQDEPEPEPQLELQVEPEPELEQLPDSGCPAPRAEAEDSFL

Kd [1]: 0.062 nM
EC50 [2]: 0.068 nM
B1: CBT-labeled PDGF-BB homodimer (platelet-derived growth factor labeled with DY605-PEG-CBT on the N-terminal cysteine) (ligand)
chain: CDNSLGSLTIAEPAMIAECKTRTEVFEISRRLIDRTNANFLVWPPCVEVQRCSGCCNNRNVQCRPTQVQLRPVQVRKIEIVRKKPIFKKATVTLEDHLACKCETVAAARPVT
modifications: DY605-PEG-CBT on the N-terminal cysteine (>=95% efficiency)

IC50 [3]: 0.11 nM
Ki [4]: 0.044 nM
B2: unlabeled PDGF-BB homodimer purified in the same manner (with CDN N-terminal appendage) (ligand)
chain: B1 chain

Kd [5]: 0.16 nM
EC50 [6]: 0.13 nM
B3: CBT-labeled EGF (epidermal growth factor labeled with DY605-PEG-CBT on the N-terminal cysteine) (ligand)
chain: CDNNSDSECPLSHDGYCLHDGVCMYIEALDKYACNCVVGYIGERCQYRDLKWWELR
modifications: DY605-PEG-CBT on the N-terminal cysteine (>=95% efficiency)

EC50 [6]: 0.16 nM
B4: EGF labeled with 2-fold molar excess of DY605-NHS-ester (ligand)
chain: B3 chain
modifications: DY605-NHS-ester on multiple lysines and on the N-terminus, heterogeneous (0-2 fluorophores per protein)

Ki [7]: 0.15 nM
IC50 [8]: 0.35 nM
B5: unlabeled EGF purified in the same manner (with CDN N-terminal appendage) (ligand)
chain: B3 chain
modifications: not fully specified

EC50 [6]: 0.25 nM
B6: EGF labeled with 5-fold molar excess of DY605-NHS-ester (ligand)
chain: B3 chain
modifications: DY605-NHS-ester on multiple lysines and on the N-terminus, heterogeneous (0-2 fluorophores per protein)

IC50 [9]: 0.12 nM
Ki [10]: 0.047 nM
B7: unlabeled VEGF165a homodimer purified in the same manner (with CDN N-terminal appendage) (ligand)
chain: CDNAPMAEGGGQNHHEVVKFMDVYQRSYCHPIETLVDIFQEYPDEIEYIFKPSCVPLMRCGGCCNDEGLECVPTEESNITMQIMRIKPHQGQHIGEMSFLQHNKCECRPKKDRARQENPCGPCSERRKHLFVQDPQTCKCSCKNTDSRCKARQLELNERTCRCDKPRR
modifications: disulfide-linked homodimer; unlabeled; mature VEGF165 limits by convention (191-aa AUG-initiated isoform precursor, signal 1-26)

Kd [11]: 0.049 nM
B8: CBT-labeled VEGF165a homodimer (vascular endothelial growth factor isoform VEGF165a labeled with DY605-PEG-CBT on the N-terminal cysteine) (ligand)
chain: B7 chain
modifications: DY605-PEG-CBT on the N-terminal cysteine (>=95% efficiency)
